Source: patent US20090175786A1
Where no end group is shown, it is not given here.

Target: T1, neuromedin-B preferring receptor (NMB-R) of C6 rodent glioblastoma cells (rodent), P24053
T1 chain: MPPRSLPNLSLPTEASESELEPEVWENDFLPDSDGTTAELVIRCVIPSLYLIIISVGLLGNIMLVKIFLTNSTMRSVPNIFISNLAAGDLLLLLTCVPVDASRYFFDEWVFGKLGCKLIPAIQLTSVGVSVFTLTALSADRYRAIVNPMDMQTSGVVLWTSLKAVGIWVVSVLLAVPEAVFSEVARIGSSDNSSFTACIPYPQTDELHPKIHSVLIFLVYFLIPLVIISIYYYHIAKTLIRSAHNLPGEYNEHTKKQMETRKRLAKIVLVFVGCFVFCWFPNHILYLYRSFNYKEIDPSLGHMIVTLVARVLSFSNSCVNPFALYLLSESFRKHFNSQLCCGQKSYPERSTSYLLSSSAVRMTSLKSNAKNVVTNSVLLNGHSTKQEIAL
Test: 125I-NMB competition, C6 cells

B1: p…-NH2 (peptide)
chain: EQRYGNQWAVGHLM-NH2
modifications: also: name truncated at 'p…', N-terminal modification unresolved
IC50: 3.36 nM
